Data: the supplement of paper PMC10567573

B1: SPOPL (parent)
chain: PDDKLTLFCEVSVVQDSVNISGHT
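Also: lentivirally expressed fusions sorted by FACS into six bins by GFP to DsRed ratio, PSI derived from sequencing read proportions per bin multiplied by bin number.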

Variants of: B1
Assay: protein stability index of a GFP-peptide fusion (GPS, HEK-293T) (PSI 1-6); higher = more stable
Conditions: c terminus: a fixed tail appended
With PDDKLTLFCEVSVVQDSVDISGHT the protein stability index was 2.41.
PDDKLTLFCEVSVVQDSVGISGHT showed a protein stability index of 1.74.
In the case of PDDKLTLFCEVSVVQDSVQISGHT, the protein stability index is reported as 1.39.
In the case of PDDKLTLFCEVSVVQDSVVISGHT, the protein stability index is reported as 2.65.
Variant PDDKLTLFCEVSVVQDSVAISGHT has a protein stability index of 2.53.
Work on PDDKLTLFCEVSVVQDSVPISGHT yielded a protein stability index of 2.29.
For PDDKLTLFCEVSVVQDSVCISGHT, the protein stability index was 1.05.
With PDDKLTLFCEVSVVQDSVKISGHT the protein stability index was 1.92.
PDDKLTLFCEVSVVQDSVIISGHT showed a protein stability index of 1.39.
Variant PDDKLTLFCEVSVVQDSVSISGHT has a protein stability index of 3.03.
Work on PDDKLTLFCEVSVVQDSVRISGHT yielded a protein stability index of 1.2.
PDDKLTLFCEVSVVQDSVTISGHT gave a protein stability index of 1.35.
Variant PDDKLTLFCEVSSVQDSVNISGHT has a protein stability index of 3.6.
PDDKLTLFCEVSIVQDSVNISGHT gave a protein stability index of 2.51.
PDDKLTLFCEVSQVQDSVNISGHT gave a protein stability index of 3.95.
PDDKLTLFCEVSNVQDSVNISGHT showed a protein stability index of 4.03.
For PDDKLTLFCEVSWVQDSVNISGHT, the protein stability index was 2.73.
For PDDKLTLFCEVSFVQDSVNISGHT, the protein stability index was 2.03.
For PDDKLTLFCEVSRVQDSVNISGHT, the protein stability index was 4.14.
Work on PDDKLTLFCEVSMVQDSVNISGHT yielded a protein stability index of 2.12.
In the case of PDDKLTLFCEVSGVQDSVNISGHT, the protein stability index is reported as 4.14.
PDDKLTLFCEVSTVQDSVNISGHT gave a protein stability index of 3.79.
With PDDKLTLFCEVSCVQDSVNISGHT the protein stability index was 2.57.
For PDDKLTLFCEVSLVQDSVNISGHT, the protein stability index was 2.02.
Variant PDDKLTLFCEVSHVQDSVNISGHT has a protein stability index of 3.63.
PDDKLTLFCEVSKVQDSVNISGHT showed a protein stability index of 3.11.
Work on PDDKLTLFCEVSPVQDSVNISGHT yielded a protein stability index of 3.99.
PDDKLTLFCEVSDVQDSVNISGHT showed a protein stability index of 4.61.
Work on PDDKLTLFCEVSYVQDSVNISGHT yielded a protein stability index of 1.94.
In the case of PDDKLTLFCEVSEVQDSVNISGHT, the protein stability index is reported as 4.61.
Variant PDDKLTLFCEVSAVQDSVNISGHT has a protein stability index of 3.35.
With PDDKLTLFCEESVVQDSVNISGHT the protein stability index was 4.81.
PDDKLTLFCEHSVVQDSVNISGHT showed a protein stability index of 4.28.
Variant PDDKLTLFCEGSVVQDSVNISGHT has a protein stability index of 4.76.
Variant PDDKLTLFCEDSVVQDSVNISGHT has a protein stability index of 4.64.
With PDDKLTLFCEQSVVQDSVNISGHT the protein stability index was 4.62.
PDDKLTLFCECSVVQDSVNISGHT showed a protein stability index of 3.34.
PDDKLTLFCEISVVQDSVNISGHT showed a protein stability index of 1.95.
With PDDKLTLFCEYSVVQDSVNISGHT the protein stability index was 2.46.
Work on PDDKLTLFCEWSVVQDSVNISGHT yielded a protein stability index of 2.14.
Variant PDDKLTLFCEFSVVQDSVNISGHT has a protein stability index of 2.61.
Variant PDDKLTLFCEPSVVQDSVNISGHT has a protein stability index of 4.58.
For PDDKLTLFCENSVVQDSVNISGHT, the protein stability index was 4.78.
In the case of PDDKLTLFCESSVVQDSVNISGHT, the protein stability index is reported as 4.47.
Variant PDDKLTLFCEASVVQDSVNISGHT has a protein stability index of 4.34.
PDDKLTLFCERSVVQDSVNISGHT showed a protein stability index of 3.67.
In the case of PDDKLTLFCEMSVVQDSVNISGHT, the protein stability index is reported as 2.77.
PDDKLTLFCETSVVQDSVNISGHT gave a protein stability index of 4.26.
In the case of PDDKLTLFCELSVVQDSVNISGHT, the protein stability index is reported as 1.93.
PDDKLTLFCEKSVVQDSVNISGHT showed a protein stability index of 4.85.
For PDDKLTLFCEVSVVQDSVNMSGHT, the protein stability index was 1.78.
In the case of PDDKLTLFCEVSVVQDSVNKSGHT, the protein stability index is reported as 2.56.
Variant PDDKLTLFCEVSVVQDSVNDSGHT has a protein stability index of 3.77.
PDDKLTLFCEVSVVQDSVNCSGHT gave a protein stability index of 2.86.
Variant PDDKLTLFCEVSVVQDSVNFSGHT has a protein stability index of 1.31.
For PDDKLTLFCEVSVVQDSVNHSGHT, the protein stability index was 3.43.
PDDKLTLFCEVSVVQDSVNNSGHT showed a protein stability index of 3.08.
Work on PDDKLTLFCEVSVVQDSVNLSGHT yielded a protein stability index of 2.56.
PDDKLTLFCEVSVVQDSVNPSGHT showed a protein stability index of 2.59.
Work on PDDKLTLFCEVSVVQDSVNESGHT yielded a protein stability index of 3.42.
For PDDKLTLFCEVSVVQDSVNTSGHT, the protein stability index was 3.2.
With PDDKLTLFCEVSVVQDSVNSSGHT the protein stability index was 3.04.
Variant PDDKLTLFCEVSVVQDSVNASGHT has a protein stability index of 2.74.
Variant PDDKLTLFCEVSVVQDSVNQSGHT has a protein stability index of 3.49.
PDDKLTLFCEVSVVQDSVNGSGHT showed a protein stability index of 3.21.
PDDKLTLFCEVSVVQDSQNISGHT showed a protein stability index of 3.27.
PDDKLTLFCEVSVVQDSPNISGHT showed a protein stability index of 2.7.
For PDDKLTLFCEVSVVQDSCNISGHT, the protein stability index was 1.85.
Work on PDDKLTLFCEVSVVQDSRNISGHT yielded a protein stability index of 2.03.
PDDKLTLFCEVSVVQDSANISGHT gave a protein stability index of 2.83.
Work on PDDKLTLFCEVSVVQDSYNISGHT yielded a protein stability index of 1.77.
Work on PDDKLTLFCEVSVVQDSGNISGHT yielded a protein stability index of 2.83.
With PDDKLTLFCEVSVVQDSHNISGHT the protein stability index was 2.6.
PDDKLTLFCEVSVVQDSLNISGHT showed a protein stability index of 1.57.
PDDKLTLFCEVSVVQDSENISGHT showed a protein stability index of 3.04.
In the case of PDDKLTLFCEVSVVQDSNNISGHT, the protein stability index is reported as 2.99.
Work on PDDKLTLFCEVSVVQDSFNISGHT yielded a protein stability index of 1.73.
In the case of PDDKLTLFCEVSVVQDSINISGHT, the protein stability index is reported as 2.09.
PDDKLTLFCEVSVVQDSSNISGHT showed a protein stability index of 2.82.
Work on PDDKLTLFCEVSVVQDSTNISGHT yielded a protein stability index of 2.81.
With PDDKLTLFCEVSVVQDSMNISGHT the protein stability index was 2.05.
PDDKLTLFCEVSVVQDSKNISGHT showed a protein stability index of 2.69.
PDDKLTLFCEVSVVQDSDNISGHT showed a protein stability index of 3.67.
Variant PDDKLTLFCEVSVVQGSVNISGHT has a protein stability index of 2.01.
With PDDKLTLFCEVSVVQVSVNISGHT the protein stability index was 3.7.
With PDDKLTLFCEVSVVQNSVNISGHT the protein stability index was 1.8.
Variant PDDKLTLFCEVSVVQKSVNISGHT has a protein stability index of 1.66.
PDDKLTLFCEVSVVQPSVNISGHT showed a protein stability index of 1.49.
For PDDKLTLFCEVSVVQESVNISGHT, the protein stability index was 1.33.
In the case of PDDKLTLFCEVSVVQQSVNISGHT, the protein stability index is reported as 1.27.
For PDDKLTLFCEVSVVQRSVNISGHT, the protein stability index was 1.21.
Work on PDDKLTLFCEVSVVQWSVNISGHT yielded a protein stability index of 2.43.
Work on PDDKLTLFCEVSVVQHSVNISGHT yielded a protein stability index of 1.15.
In the case of PDDKLTLFCEVSVVQSSVNISGHT, the protein stability index is reported as 2.32.
